Experimental data as given in PMC3549248, “Charcot–Marie–Tooth type 2B disease-causing RAB7A mutant proteins show altered interaction with the neuronal intermediate filament peripherin” (Acta Neuropathologica, 2012).
Numbering of substitutions follows the chain as printed. In names and notes the source's numbering stands.

Tests used:
[1] = target: T1, pGADT7Rec-peripherin, P41219; assay: yeast two-hybrid β-galactosidase liquid assay; conditions: chain shown with the change; ONPG as substrate; parent: est. 80; read off a plot
T1 chain: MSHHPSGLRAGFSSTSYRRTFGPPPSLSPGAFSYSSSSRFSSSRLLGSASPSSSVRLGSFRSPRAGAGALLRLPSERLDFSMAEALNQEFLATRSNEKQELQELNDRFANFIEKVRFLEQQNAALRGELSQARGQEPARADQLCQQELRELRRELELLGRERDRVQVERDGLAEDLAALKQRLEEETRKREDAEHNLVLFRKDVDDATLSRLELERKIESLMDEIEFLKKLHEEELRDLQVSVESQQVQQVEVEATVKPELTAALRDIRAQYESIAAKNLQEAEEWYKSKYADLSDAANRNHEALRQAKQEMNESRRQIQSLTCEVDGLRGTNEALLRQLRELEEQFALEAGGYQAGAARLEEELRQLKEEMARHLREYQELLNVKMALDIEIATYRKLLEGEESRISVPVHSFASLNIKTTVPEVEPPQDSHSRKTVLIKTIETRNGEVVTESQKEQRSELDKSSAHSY

HA-tagged RAB7A L129F = target: T2, HA-tagged RAB7A L129F (UniProt P18067 1-207, L129F); assay: co-IP; Neuro2A cells transfected with HA- or MYC-tagged RAB7A; RIPA lysate; anti-HA or anti-MYC resin 1 h at 4 °C; blot for endogenous peripherin; conditions: partners not purified
T2 construct: RAB7A with a CMT2B disease mutation; plasmid described previously; also called disease-causing mutant; source: Neuro2A or PC12 cells, transfected, in lysate

HA-tagged RAB7A V162M = target: T3, HA-tagged RAB7A V162M (UniProt P18067 1-207, V162M); assay: as above; conditions: partners not purified
T3 construct: RAB7A with a CMT2B disease mutation; plasmid described previously; also called disease-causing mutant; source: Neuro2A or PC12 cells, transfected, in lysate

HA-tagged RAB7A N161T = target: T4, HA-tagged RAB7A N161T (UniProt P18067 1-207, N161T); assay: as above; conditions: partners not purified
T4 construct: RAB7A with a CMT2B disease mutation; plasmid described previously; also called disease-causing mutant; source: Neuro2A or PC12 cells, transfected, in lysate

HA-tagged RAB7A K157N = target: T5, HA-tagged RAB7A K157N (UniProt P18067 1-207, K157N); assay: as above; conditions: partners not purified
T5 construct: RAB7A with a CMT2B disease mutation; plasmid described previously; also called disease-causing mutant; source: Neuro2A or PC12 cells, transfected, in lysate

His-tagged RAB7A L129F = target: T6, His-tagged RAB7A L129F (UniProt P18067 1-207, L129F); assay: pull-down; 20 μg purified His-tagged RAB7A bound to NiNTA resin, incubated with Neuro2A cell extracts at 4 °C for 1 h; blot for peripherin; conditions: one partner purified
T6 construct: RAB7A with a CMT2B disease mutation, from E. coli; The pull-down text says 'the CMT2B RAB7A mutants'; also called CMT2B RAB7A mutant L129F

His-tagged RAB7A N161T = target: T7, His-tagged RAB7A N161T (UniProt P18067 1-207, N161T); assay: as above; conditions: one partner purified
T7 construct: RAB7A with a CMT2B disease mutation, from E. coli; The pull-down text says 'the CMT2B RAB7A mutants'; also called CMT2B RAB7A mutant N161T

His-tagged RAB7A Q67L = target: T8, His-tagged RAB7A Q67L (UniProt P18067 1-207, Q67L); assay: as above; conditions: one partner purified
T8 construct: RAB7A constitutively active mutant, from E. coli; also called constitutively active RAB7A Q67L mutant

His-tagged RAB7A V162M = target: T9, His-tagged RAB7A V162M (UniProt P18067 1-207, V162M); assay: as above; conditions: one partner purified
T9 construct: RAB7A with a CMT2B disease mutation, from E. coli; The pull-down text says 'the CMT2B RAB7A mutants'; also called CMT2B RAB7A mutant V162 M

His-tagged RAB7A K157N = target: T10, His-tagged RAB7A K157N (UniProt P18067 1-207, K157N); assay: as above; conditions: one partner purified
T10 construct: RAB7A with a CMT2B disease mutation, from E. coli; The pull-down text says 'the CMT2B RAB7A mutants'; also called CMT2B RAB7A mutant K157 N

B1: pGBKT7-RAB7A wt, P18067 V162M (protein)
chain: MTSRKKVLLKVIILGDSGVGKTSLMNQYVNKKFSNQYKATIGADFLTKEVMVDDRLVTMQIWDTAGQERFQSLGVAFYRGADCCVLVFDVTAPNTFKTLDSWRDEFLIQASPRDPENFPFVVLGNKIDLENRQVATKRAQAWCYSKNNIPYFETSAKEAINMEQAFQTIARNALKQETEVELYNEFPEPIKLDKNDRAKTSAESCSC
response (relative units) [1]: 99

B2: pGBKT7-RAB7A wt, P18067 T22N (protein)
chain: B1 chain with T22N, M162V
response (relative units) [1]: 115

B3: pGBKT7-RAB7A wt, P18067 N161T (protein)
chain: B1 chain with N161T, M162V
response (relative units) [1]: 102

B4: pGBKT7-RAB7A wt, P18067 K157N (protein)
chain: B1 chain with K157N, M162V
response (relative units) [1]: 98

B5: peripherin (endogenous, Neuro2A cells) (natural protein, mouse (endogenous in Neuro2A), UniProt P15331 1-475, looked up)
chain: MPSSASMSHHHSSGLRSSISSTSYRRTFGPPPSLSPGAFSYSSSSRFSSSRLLGSGSPSSSARLGSFRAPRAGALRLPSERLDFSMAEALNQEFLATRSNEKQELQELNDRFANFIEKVRFLEQQNAALRGELSQARGQEPARADQLCQQELRELRRELELLGRERDRVQVERDGLAEDLAALKQRLEEETRKREDAEHNLVLFRKDVDDATLSRLELERKIESLMDEIEFLKKLHEEELRDLQVSVESQQVQQVEVEATVKPELTAALRDIRAQYENIAAKNLQEAEEWYKSKYADLSDAANRNHEALRQAKQEMNESRRQIQSLTCEVDGLRGTNEALLRQLRELEEQFALEAGGYQAGAARLEEELRQLKEEMARHLREYQELLNVKMALDIEIATYRKLLEGEESRISVPVHSFASLSLKTTVPEMEPLQDSHSKKMVLIRTIETRDGEKVVTESQKEQHSDLDKSSIHSY
notes: peripherin endogenous in mouse Neuro2A neuroblastoma cells, detected with anti-peripherin antibodies; main form of 58 kDa (Per-58); also called Per-58; source: endogenous, Neuro2A lysate
co-immunoprecipitated peripherin relative to RAB7A wt (HA-tagged RAB7A L129F): ~60 % more than RAB7A wt
co-immunoprecipitated peripherin relative to RAB7A wt (HA-tagged RAB7A V162M): ~60 % more than RAB7A wt
co-immunoprecipitated peripherin relative to RAB7A wt (HA-tagged RAB7A N161T): ~60 % more than RAB7A wt
co-immunoprecipitated peripherin relative to RAB7A wt (HA-tagged RAB7A K157N): ~60 % more than RAB7A wt
pulled-down peripherin relative to RAB7A wt (His-tagged RAB7A L129F): 2 fold of RAB7A wt
pulled-down peripherin relative to RAB7A wt (His-tagged RAB7A N161T): 2 fold of RAB7A wt
pulled-down peripherin relative to RAB7A wt (His-tagged RAB7A Q67L): 2 fold of RAB7A wt
pulled-down peripherin relative to RAB7A wt (His-tagged RAB7A V162M): 2 fold of RAB7A wt
pulled-down peripherin relative to RAB7A wt (His-tagged RAB7A K157N): 2 fold of RAB7A wt
